The supplement of paper PMC10126150
± gives the standard deviation of the averaged measurements.

System: ATP
Experiment: switch fluorescence ratio, 500 uM ATP over buffer (Cy3 cluster intensity, sum of 5 cycles each) (fold (ratio)); higher = stronger signal-on switching upon ATP binding; sequences stand for … in TCGTCGGCAGCGTCAGATGTGTATAAGAGACAGTTTTTTTTTTTTTTTTTTTTTTTTT…TC
Settings: aptamer strand: ATP DNA aptamer (quencher-CACCTGGGGGAGTATTGCGGAGGAAGG + anchor), 100 nM annealed; ATP concentration: 500 uM
Outline: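 Per cluster, summed Cy3 intensity from the target cycles was divided by that from the buffer cycles to give the fluorescence ratio, then averaged per switch-domain sequence. Clusters outside 100-1000 RFU were excluded. The Cy3-labelled switching-strand clusters, on a modified Illumina MiSeq flow-cell, were annealed to 100 nM quencher-labelled ATP aptamer and imaged in selection buffer, then after 15 min with 500 uM ATP at 22 °C, for five cycles with NaOH stripping and re-annealing between them.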
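Further: ATP exposure 15 min at 22 °C before imaging.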

Row | Sequence | switch fluorescence ratio
1 | GCGTTTATGG | 1 ± 0.02
2 | TAATCGGGTT | 0.996 ± 0.017
3 | TGGCGAGGCG | 1.046 ± 0.0077
4 | AAAGTATCAG | 1.002 ± 0.0081
5 | TCGGGTCCAT | 1 ± 0.026
6 | GGTAATTTGG | 1 ± 0.023
7 | ATGGAAGTGG | 0.9908 ± 0.007
8 | AGAAGTTTCG | 1.011 ± 0.0068
9 | AGCAGAGGAC | 0.971 ± 0.058
10 | AAGCATGGGA | 1.01 ± 0.022
11 | GGCAACGCGT | 1 ± 0.025
12 | CGCTTTAGTG | 1.01 ± 0.014
13 | CGGTTGGCCT | 0.9978 ± 0.0069
14 | GCATTAGGAC | 1.24 ± 0.018
15 | GGGTCAAAGT | 1.01 ± 0.013
16 | TTTAAGACGA | 1.02 ± 0.014
17 | CAAGTTTGTA | 0.997 ± 0.021
18 | GAGTGCATTG | 1.01 ± 0.015
19 | TGTTACCGG | 1.004 ± 0.0037
20 | CTAATTGAGT | 1.01 ± 0.014
21 | TTGTAGGATA | 0.994 ± 0.012
22 | ATAGGGGGCA | 0.98 ± 0.023
23 | ATTCAAGTCA | 1.03 ± 0.025

Row | Sequence | switch fluorescence ratio
24 | GGAAGGGGGA | 1.07 ± 0.096
25 | AGTATGTCGT | 1.03 ± 0.024
26 | GGGGAGGATT | 0.986 ± 0.027
27 | TGGGTGTCGT | 1.02 ± 0.081
28 | CAGGATGCGA | 1.05 ± 0.016
29 | CATTATTAAA | 0.976 ± 0.025
30 | GTTTTGGAGG | 0.9691 ± 0.0043
31 | ATTTGTTAGA | 1.03 ± 0.021
32 | ATTAATAGCA | 0.9745 ± 0.0089
33 | TGTAACGCTG | 0.974 ± 0.057
34 | TTTGTTTGGG | 0.998 ± 0.033
35 | TTTCCCTGGT | 1.12 ± 0.11
36 | GAGGGTCTCT | 0.98005 ± 0.00068
37 | TTTTCTTAGA | 0.977 ± 0.029
38 | TATATGCGTG | 0.9932 ± 0.0039
39 | TCCGTAGTGT | 2.12 ± 0.37
40 | GGGACCTAAG | 1 ± 0.024
41 | CCACCATTTT | 1.13 ± 0.12
42 | AAAAGGTTGG | 0.997 ± 0.015
43 | TTACACTTGT | 1 ± 0.032
44 | TAGTCTAGTG | 0.9812 ± 0.0066
45 | AGGGGTGCGG | 1.04 ± 0.08
46 | TCTTAATTTT | 0.973 ± 0.024

Row | Sequence | switch fluorescence ratio
47 | CCCCTGTACT | 1.227 ± 0.0074
48 | GGGGTGTGGG | 1 ± 0.018
49 | GAAATTGACC | 1.02 ± 0.038
50 | ATGCATGGGC | 1.03 ± 0.022
51 | AAGTCTGGGG | 1.01 ± 0.027
52 | CGACTAAGAG | 1.02 ± 0.025
53 | TTTAGTTTG | 1 ± 0.037
54 | AGACTGATAC | 1.08 ± 0.025
55 | CCAGCTGCGG | 1.01 ± 0.022
56 | TAGTAGGTAG | 0.985 ± 0.025
57 | GGGTTCTAGT | 0.9972 ± 0.008
58 | TGGGTTGGGG | 1.01 ± 0.049
59 | ATTGAGTAGC | 1.01 ± 0.032
60 | GAGGTGCTGA | 1 ± 0.061
61 | TAGGGCTGTA | 0.993 ± 0.049
62 | CCTGGGGTCG | 1.05 ± 0.05
63 | CCACCTATCA | 1.07 ± 0.031
64 | AGCGGCACAC | 1.073 ± 0.0095
65 | TTCACTTTTG | 1.01 ± 0.028
66 | ATGCATTGGA | 1.01 ± 0.029
67 | GGCTCCGGTT | 1.19 ± 0.084
68 | TCTGAAGGAG | 1.01 ± 0.013
69 | TATCGGATGG | 1.0207 ± 0.00094

Row | Sequence | switch fluorescence ratio
70 | ACATGCTACG | 1.05 ± 0.034
71 | GTTTGGGTGT | 1 ± 0.016
72 | CAGTTGGTTT | 0.97 ± 0.02
73 | GGTAGGTGTT | 1.04 ± 0.037
74 | ATGGGGGTAG | 1.01 ± 0.048
75 | ATTTGGTTAG | 0.987 ± 0.025
76 | ACTTCTCGGT | 0.992 ± 0.017
77 | TCGTGAGTAG | 0.973 ± 0.017
78 | ACTGGGTTTC | 0.99 ± 0.054
79 | CGGGGACTTC | 1.02 ± 0.019
80 | TAGTTGGGAT | 0.991 ± 0.029
81 | CGCATTGGT | 1.31 ± 0.016
82 | ATTCGTATAT | 0.969 ± 0.051
83 | AGGGGGCAGC | 1.01 ± 0.015
84 | TAGATGGGGA | 0.977 ± 0.035
85 | GTGGGTCGTA | 0.985 ± 0.046
86 | TTACCGACGG | 1.1 ± 0.069
87 | GGGCAACGAC | 1.07 ± 0.0093
88 | CTTGTTATTG | 0.9602 ± 0.0071
89 | ACTTGGCAAA | 1.16 ± 0.02
90 | CATGATTAGT | 0.951 ± 0.041
91 | GTTCCGCCGA | 1.23 ± 0.026
92 | GCGATGGAAT | 1.1282 ± 6e-05

Row | Sequence | switch fluorescence ratio
93 | TTATTGGGCT | 1.01 ± 0.013
94 | TGGGGAGGGC | 1 ± 0.035
95 | GAGGTTGCGG | 0.96 ± 0.036
96 | CGCTCCCATT | 1.46 ± 0.024
97 | CTGTTTACTG | 0.987 ± 0.014
98 | GCTAACTAGG | 1.038 ± 0.0087
99 | TTTAATTA | 1.01 ± 0.032
100 | AAAAAGGGAA | 0.986 ± 0.02
101 | AGAGGCAAGG | 1.0062 ± 0.0002
102 | CTATTTAGCC | 1.02 ± 0.063
103 | TTGAGACGGT | 1 ± 0.017
104 | TTATTACT | 0.981 ± 0.011
105 | CACTTGTGAC | 1 ± 0.016
106 | CTTACTCTTT | 1.0258 ± 0.00043
107 | GTCCTTTTTT | 0.97 ± 0.039
108 | CGAAGGCTCG | 0.99 ± 0.04
109 | GGCCCGGGGT | 1.44 ± 0.37
110 | AGATGACTTT | 0.98 ± 0.034
111 | TCGGTTTGTT | 1 ± 0.0029
112 | GGAATGTCGG | 0.962 ± 0.051
113 | AGTGTTACGT | 0.989 ± 0.042
114 | CCTTAGGGGG | 1.24 ± 0.33
115 | CAGTGGCTTC | 1.01 ± 0.023

Row | Sequence | switch fluorescence ratio
116 | AATAGGGGTG | 1.01 ± 0.043
117 | GACAGGGGCC | 0.987 ± 0.018
118 | CACGCGGTGG | 1.02 ± 0.13
119 | GATTATTGGG | 0.988 ± 0.036
120 | TTTTGGATGT | 0.984 ± 0.048
121 | TATTCAAGTT | 1 ± 0.024
122 | GGGAGCATTG | 1.02 ± 0.037
123 | CGGGTCCGTA | 0.9751 ± 0.004
124 | ATGGCAAGGT | 1.02 ± 0.065
125 | TGGTTGCTCT | 0.9891 ± 0.008
126 | GTTAACGATA | 1.03 ± 0.038
127 | GGTATGGCGC | 0.986 ± 0.058
128 | TTTTTTCAAT | 1.03 ± 0.029
129 | CTATTCGTGG | 0.973 ± 0.029
130 | AAGTTGTGA | 0.973 ± 0.035
131 | TTTGATATGC | 1.116 ± 0.0054
132 | TTAGGGAAGG | 0.993 ± 0.02
133 | CTGCGGTGGG | 1.006 ± 0.0051
134 | ATCCGGGGGA | 1.04 ± 0.11
135 | AGTAGGGTTA | 0.989 ± 0.029
136 | TGGTAGGTGG | 1.017 ± 0.0049
137 | GGGGAATTAG | 0.973 ± 0.008
138 | TGGTCCAGAA | 0.977 ± 0.016

Row | Sequence | switch fluorescence ratio
139 | GGAGGAGATA | 0.995 ± 0.02
140 | GCGATTTTTA | 1.09 ± 0.089
141 | ATAGGAGGGC | 0.935 ± 0.036
142 | CTAGGGCTTC | 0.979 ± 0.02
143 | TAACAGGTTG | 1.02 ± 0.019
144 | GGGTCAGGCT | 0.981 ± 0.027
145 | CGTCACGGGA | 1.05 ± 0.036
146 | ATAAGAGTCT | 1.03 ± 0.094
147 | GGCGTTGGGT | 0.9929 ± 0.0096
148 | GCTAAAACCG | 1.06 ± 0.052
149 | GATTGTAGTG | 0.993 ± 0.032
150 | GGTTTATTAT | 1.02 ± 0.017
151 | ATGAGACCCT | 1.07 ± 0.036
152 | GCGGGGCTAG | 0.989 ± 0.024
153 | TTGTGCAAGG | 1.34 ± 0.47
154 | GGAAACGCGA | 1.54 ± 0.093
155 | CTAGTTAAGC | 0.9892 ± 0.0035
156 | CATTTACCAT | 1.03 ± 0.014
157 | CATTTGTGTT | 1.02 ± 0.046
